Target: the molecule itself
Assay: SEC-MALS

B1: VopL W3-C (residues 115-484: three WH2 motifs and the VCD) (domain or fragment, Vibrio parahaemolyticus, UniProt Q87GE5 115-484, looked up)
chain: NLSKGAPKSSSNSLDSVNEDHSKLMEQIRQGVKLKSATKSLSADKSSADAHSKLMEELLTGGRKLKKVATSDIPAPPPLPSASTSKSPDSRNALLSEIAGFSKDRLRKTGSLETLNSSQSKDKESFEPTTHERLLSEDLFKQSPKLSEQELDELANNLADYLFQAADIDWHQVISEKTRGLTTEEMAKSEHRYVQAFCREILKYPDCYKSADVASPESPKSGGGSVIDVALKRLQTGRERLFTTTDEKGNRELKKGDAILESAINAARMAISTEEKNTILSNNVKSATFEVFCELPCMDGFAEQNGKTAFYALRAGFYSAFKNTDTAKQDITKFMKDNLQAGFSGYSYQGLTNRVAQLEAQLAALSAKLS
stoichiometry N: 2
